Assay results as given in paper PMC2917093 (Biochemistry, 2009).
“And” between values parts separate entries of the source, which are not always exact repeats. Equal values may be shown once.

Molecular target: T1, human ribonucleotide reductase small subunit β′ (p53R2) (human, UniProt Q7LG56 1-351)
T1 sequence (looked up): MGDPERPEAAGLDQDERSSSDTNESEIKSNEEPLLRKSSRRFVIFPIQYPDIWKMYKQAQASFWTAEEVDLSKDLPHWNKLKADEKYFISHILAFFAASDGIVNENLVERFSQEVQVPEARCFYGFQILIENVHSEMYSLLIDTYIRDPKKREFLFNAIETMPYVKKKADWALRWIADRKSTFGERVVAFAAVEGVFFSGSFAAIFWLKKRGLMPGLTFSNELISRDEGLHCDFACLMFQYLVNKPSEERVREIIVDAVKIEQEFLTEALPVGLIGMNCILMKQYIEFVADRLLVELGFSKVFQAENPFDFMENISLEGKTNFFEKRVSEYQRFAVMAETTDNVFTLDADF
Assay: SEC

B1: human ribonucleotide reductase large subunit α (enzyme, UniProt P23921 1-792, looked up)
chain: MHVIKRDGRQERVMFDKITSRIQKLCYGLNMDFVDPAQITMKVIQGLYSGVTTVELDTLAAETAATLTTKHPDYAILAARIAVSNLHKETKKVFSDVMEDLYNYINPHNGKHSPMVAKSTLDIVLANKDRLNSAIIYDRDFSYNYFGFKTLERSYLLKINGKVAERPQHMLMRVSVGIHKEDIDAAIETYNLLSERWFTHASPTLFNAGTNRPQLSSCFLLSMKDDSIEGIYDTLKQCALISKSAGGIGVAVSCIRATGSYIAGTNGNSNGLVPMLRVYNNTARYVDQGGNKRPGAFAIYLEPWHLDIFEFLDLKKNTGKEEQRARDLFFALWIPDLFMKRVETNQDWSLMCPNECPGLDEVWGEEFEKLYASYEKQGRVRKVVKAQQLWYAIIESQTETGTPYMLYKDSCNRKSNQQNLGTIKCSNLCTEIVEYTSKDEVAVCNLASLALNMYVTSEHTYDFKKLAEVTKVVVRNLNKIIDINYYPVPEACLSNKRHRPIGIGVQGLADAFILMRYPFESAEAQLLNKQIFETIYYGALEASCDLAKEQGPYETYEGSPVSKGILQYDMWNVTPTDLWDWKVLKEKIAKYGIRNSLLIAPMPTASTAQILGNNESIEPYTSNIYTRRVLSGEFQIVNPHLLKDLTERGLWHEEMKNQIIACNGSIQSIPEIPDDLKQLYKTVWEISQKTVLKMAAERGAFIDQSQSLNIHIAEPNYGKLTSMHFYGWKQGLKTGMYYLRTRPAANPIQFTLNKEKLKDKEKVSKEEEEKERNTAAMVCSLENRDECLMCGS
stoichiometry N: 1.2 α:β' and 1 α:β' and 1.06 α:β'
